The record followed here is patent publication US20070059320A1.

This assay concerns the target NADH dehydrogenase subunit 2 (ND2), native protein in brain lysates, PSD preparations, hippocampal neurons and tissues (rat) (UniProt P11662). In words: cell-based or functional assay.

NADH dehydrogenase subunit 2 (ND2), native protein in brain lysates, PSD preparations, hippocampal neurons and tissues (rat), sequence (P11662 whole entry): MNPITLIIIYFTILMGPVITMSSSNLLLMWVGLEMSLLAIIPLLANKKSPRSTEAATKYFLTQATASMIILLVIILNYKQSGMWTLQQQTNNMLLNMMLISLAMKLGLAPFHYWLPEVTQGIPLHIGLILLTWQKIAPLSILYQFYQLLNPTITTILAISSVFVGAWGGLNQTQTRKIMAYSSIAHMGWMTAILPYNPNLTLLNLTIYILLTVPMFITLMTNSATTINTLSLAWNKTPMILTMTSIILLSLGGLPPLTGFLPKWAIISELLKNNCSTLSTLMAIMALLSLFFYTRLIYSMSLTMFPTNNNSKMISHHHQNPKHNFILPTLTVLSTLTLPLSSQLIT

Consider “Src40-58 peptide (amino acid residues 40-58 of SEQ ID NO:4)”, for which the NMDAR component of mEPSCs (cultured hippocampal neurons, whole-cell recording) stood at 56%.
